The source of these data is patent US20160033523A1 (NOVOZYMES BIOPHARMA DK A S, published 2016).

B3: Wild type pig serum albumin (ligand)
chain: DTYKSEIAHRFKDLGEQYFKGLVLIAFSQHLQQCPYEEHVKLVREVTEFAKTCVADESAENCDKSIHTLFGDKLCAIPSLREHYGDLADCCEKEEPERNECFLQHKNDNPDIPKLKPDPVALCADFQEDEQKFWGKYLYEIARRHPYFYAPELLYYAIIYKDVFSECCQAADKAACLLPKIEHLREKVLTSAAKQRLKCASIQKFGERAFKAWSLARLSQRFPKADFTEISKIVTDLAKVHKECCHGDLLECADDRADLAKYICENQDTISTKLKECCDKPLLEKSHCIAEAKRDELPADLNPLEHDFVEDKEVCKNYKEAKHVFLGTFLYEYSRRHPDYSVSLLLRIAKIYEATLEDCCAKEDPPACYATVFDKFQPLVDEPKNLIKQNCELFEKLGEYGFQNALIVRYTKKVPQVSTPTLVEVARKLGLVGSRCCKRPEEERLSCAEDYLSLVLNRLCVLHEKTPVSEKVTKCCTESLVNRRPCFSALTPDETYKPKEFVEGTFTFHADLCTLPEDEKQIKKQTALVELLKHKPHATEEQLRTVLGNFAAFVQKCCAAPDHEACFAVEGPKFVIEIRGILA
notes: also called PSA; pig SA
B6: Soluble guinea pig FcRn with guinea pig beta2-microglobulin, HIS-tagged (receptor)
chain: AENHLSLLYHLTAVSSPATGSPAFWVSGWLGPQQYLSYSSLRREAEPCGAWVWETQVSWYWEMETTDLKNKESLFLEALKALGGKGPYTLQGILGCELSPDNSSVPTALFALNGEDFMEFHPENGSWTGDWPEALSISKQWEKKAEVVSKEKTFLLSSCPQRLLDHLERSRRNLEWKEPPSMRLKARPGDAGFSVLTCSAFSFYPPELQLRFLHNGLAAGTGEGGFGPNGDGSFHAWSSLTVQRGDEHNYRCLVQHAGLPQPLSVELESPAGSS
b2m: VLHAPRVQVYSRHPAENGKQNFINCYVSGFHPPQIEVELLKNGKKIDNVEMSDLSFSKDWTFYLLVHAAFTPNDSDEYSCRVSHITLSEPKIVKWDPNK
notes: Synthesized by GeneArt, expressed in HEK cells; also called gpFcRn; gpFcRN; not shown: HIS-tag on the C-terminal of the beta-chain

Assay [1] addresses B6. In words: SPR, albumin over immobilized His-FcRn, pH 5.5, 1:1 Langmuir. The method, then:
(§1) SPR experiments were carried out using a Biacore 3000 instrument (GE Healthcare). Flow cells of CM5 sensor chips were coupled with soluble FcRn from one of the following species, human (shFcRn), rat (srFcRn), mouse (smFcRn), rhesus monkey (srmFcRn), dog (dFcRn) or pig (pFcRn) (˜900-2500 resonance units (RU)) using GE Healthcare amine coupling chemistry as per the manufacturer's instructions. The coupling was performed by injecting 2 or 10 μg/ml FcRn in 10 mM sodium acetate pH 5.0 (GE healthcare). Phosphate buffer (67 mM phosphate buffer, 0.15 M NaCl, 0.005% Tween 20) at pH 6.0) was used as running buffer and dilution buffer. Regeneration of the surfaces were done using injections of HBS-EP buffer (0.01 M HEPES, 0.15 M NaCl, 3 mM EDTA, 0.005% surfactant P20) at pH 7.4 (GE Healthcare). For determination of binding kinetics, serial dilutions of albumin (10-0.3 μM) were injected over immobilized receptors at a constant flow rate (50 μl/min) at 25° C. In all experiments, data were zero adjusted and the reference cell subtracted.
(§2) The SPR assay was conducted with the following variations to the assay described in the Materials and Method section:
(§3) The soluble FcRn receptors were synthesized by GeneArt and expressed in HEK cells. The soluble FcRn contained a HIS-tag on the C-terminal of the Beta-chain instead of a GST on the heavy chain and the beta-chain used was the native beta-chain of the animal (see Materials and Method section for the corresponding sequences). The soluble FcRn was purified by a HIS trap column followed by an additional purification using an IgG column. The soluble FcRn receptor was diluted to 20 μg/mL. The phosphate buffer used as running buffer in the SPR assay was at pH 5.5 instead of pH 6.0. […] 1:1 Langmuir or Steady state model was used.

The target of assay [2] is T1, Soluble dog FcRn, GST-tagged, with human beta2-microglobulin (dog; Schistosoma japonicum; human, UniProt P08515 1-218 = GST).
T1 construct: also called dFcRn
In words: SPR, albumin over immobilized GST-FcRn, pH 6.0, 1:1 model. The method, then:
as §1
On the technique in general: SPR reads the build-up and loss of mass on a sensor chip optically.

The target of assay [3] is T2, Soluble pig FcRn, GST-tagged, with human beta2-microglobulin (Example 2) (pig; Schistosoma japonicum; human, UniProt P08515 1-218 = GST).
T2 construct: also called pFcRn; spFcRn
The assay is described as above. As for the experimental part:
as §1

For assay [4], the target named is T1, Soluble dog FcRn, GST-tagged, with …. Put plainly: SPR, albumin over immobilized GST-FcRn, pH 6.0, estimated from steady state. As for the experimental part:
as §1

The target of assay [5] is T3, Soluble rhesus monkey FcRn, GST-tagged, with human beta2-microglobulin (rhesus monkey; Schistosoma japonicum; …, UniProt P08515 1-218 = GST).
T3 construct: also called srmFcRn; soluble rhesus macaque FcRn
In words: SPR, albumin over immobilized GST-FcRn, pH 6.0, 1:1 model. As for the experimental part: as §1

In assay [6] the target is T4, Wild type human serum albumin (human, UniProt P02768 25-609).
T4 construct: also called HSA; HSA Wt
T4 sequence (P02768 25-609): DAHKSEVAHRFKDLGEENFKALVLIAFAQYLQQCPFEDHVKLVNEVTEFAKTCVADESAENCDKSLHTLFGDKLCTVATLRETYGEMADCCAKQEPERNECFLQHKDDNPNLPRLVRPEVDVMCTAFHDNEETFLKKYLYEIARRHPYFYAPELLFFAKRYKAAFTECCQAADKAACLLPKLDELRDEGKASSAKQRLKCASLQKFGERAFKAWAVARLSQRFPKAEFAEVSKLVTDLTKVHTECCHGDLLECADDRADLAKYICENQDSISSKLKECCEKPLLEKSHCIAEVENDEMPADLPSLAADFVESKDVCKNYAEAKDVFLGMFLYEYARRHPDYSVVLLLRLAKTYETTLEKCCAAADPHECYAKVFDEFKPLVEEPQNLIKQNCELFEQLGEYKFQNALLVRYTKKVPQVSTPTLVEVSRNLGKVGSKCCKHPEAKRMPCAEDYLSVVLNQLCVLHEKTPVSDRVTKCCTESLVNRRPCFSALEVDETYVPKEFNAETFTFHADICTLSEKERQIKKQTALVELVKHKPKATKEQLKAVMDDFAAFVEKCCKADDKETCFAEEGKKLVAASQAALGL
In words: SPR, albumin over immobilized His-FcRn, pH 5.5, steady state. The method, then:
as §1, §2, §3

In assay [7] the target is B3. The description is as above. As for the experimental part:
as §1, §2, §3

The target of assay [8] is T5, N-terminally c-myc tagged Wt HSA (human, UniProt P02768 25-609).
T5 construct: Secreted from yeast; a +2058 Da miscleaved leader species was reduced to below 5%; also called c-myc-HSA Wt; Cmyc-WT HSA
T5 sequence (P02768 other isoform, or with tags, fused parts or gaps): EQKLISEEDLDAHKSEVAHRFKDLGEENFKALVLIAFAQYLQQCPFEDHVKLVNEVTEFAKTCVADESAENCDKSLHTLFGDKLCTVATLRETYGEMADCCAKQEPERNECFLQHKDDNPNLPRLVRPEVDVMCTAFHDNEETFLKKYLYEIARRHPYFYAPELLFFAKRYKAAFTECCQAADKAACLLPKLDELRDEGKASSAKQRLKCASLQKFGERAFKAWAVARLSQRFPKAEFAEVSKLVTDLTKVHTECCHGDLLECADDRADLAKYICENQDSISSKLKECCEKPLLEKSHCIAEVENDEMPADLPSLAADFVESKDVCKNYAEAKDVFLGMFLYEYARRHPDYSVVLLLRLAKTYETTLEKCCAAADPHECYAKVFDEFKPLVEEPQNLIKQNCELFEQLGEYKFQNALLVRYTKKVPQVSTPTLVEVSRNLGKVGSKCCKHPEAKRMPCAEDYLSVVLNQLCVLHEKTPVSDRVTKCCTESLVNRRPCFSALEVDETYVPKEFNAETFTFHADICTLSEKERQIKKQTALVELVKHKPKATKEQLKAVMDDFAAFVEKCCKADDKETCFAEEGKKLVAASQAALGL
Described as above. As for the experimental part: as §1, §2, §3

Assay [9] addresses T6, N-terminally c-myc tagged albumin variant K573P (human, UniProt P02768 25-609).
T6 construct: Substitution numbered on mature HSA, not on the tagged chain; also called c-myc-K573P
Put plainly: SPR, albumin over immobilized His-FcRn, pH 5.5, 1:1 Langmuir. The method, then:
as §1, §2, §3

A further assay concerns the target T7, HSA K573P (human, UniProt P02768 25-609).
T7 construct: Variant of mature HSA
The assay is described as above. As for the experimental part: as §1, §2, §3

As a reminder, the Kd is a measure of binding affinity in units of concentration. For orientation: koff means the rate constant with which the complex falls apart. The kon is a measure of how fast the partners come together.

T7 sequence (P02768 25-609 K597P): as the sequence (P02768 25-609) above, with K573P counted along it
T6 sequence (P02768 other isoform, or with tags, fused parts or gaps K573P K573P): as the sequence (P02768 other isoform, or with tags, fused parts or gaps) above, with K583P counted along it

B1: Wild type guinea pig serum albumin (ligand)
chain: EAHKSEIAHRFNDLGEGHFKGLVLITLSQHLQKSPFEEHVKLVNEVTDFAKACVADESAQNCGKAIATLFGDKVCAIPSLRETYGELADCCAKEDPDRVECFLQHKDDNPNLPPFERPEPEALCTAFKENNDRFIGHYLYEVSRRHPYFYAPELLYYAEKYKNALTECCEAADKAACLTPKLDAIKEKALVSSAQQRLKCASLQKFGERAFKAWSVARLSQKFPKAEFAEISTIVTSLTKVTKECCHGDLLECADDRQELAKYMCEHQDSISSKLKECCVKPTLQKAHCILEIQRDELPTELPDLAVDFVEDKEVCKNFAEAKDVFLGTFLYEYSRRHPEYSIGMLLRIAKGYEAKLEKCCAEADPHACYAKVFDELQPLIDEPKKLVQQNCELFDKLGEYGFQNALAVRYTQKAPQVSTPTLVEYARKLGSVGTKCCSLPETERLSCTENYLALILNRLCILHEKTPVSERVTKCCTESLVNRRPCFSALHVDETYVPKPFHADSFTFHADICTLPEKEKQVKKQMALVELVKHKPKASEEQMKTVMGDFAAFLKKCCDADNKEACFTEDGPKLVAKCQATLA
notes: also called GPSA; guinea pig SA
Take B1: in [1], the Kd came out at 1100 nM, the koff worked out at 0.0419 s⁻¹ and the kon is 36200 M⁻¹ s⁻¹.

B2: Wild type dog serum albumin (ligand)
chain: EAYKSEIAHRYNDLGEEHFRGLVLVAFSQYLQQCPFEDHVKLAKEVTEFAKACAAEESGANCDKSLHTLFGDKLCTVASLRDKYGDMADCCEKQEPDRNECFLAHKDDNPGFPPLVAPEPDALCAAFQDNEQLFLGKYLYEIARRHPYFYAPELLYYAQQYKGVFAECCQAADKAACLGPKIEALREKVLLSSAKERFKCASLQKFGDRAFKAWSVARLSQRFPKADFAEISKVVTDLTKVHKECCHGDLLECADDRADLAKYMCENQDSISTKLKECCDKPVLEKSQCLAEVERDELPGDLPSLAADFVEDKEVCKNYQEAKDVFLGTFLYEYARRHPEYSVSLLLRLAKEYEATLEKCCATDDPPTCYAKVLDEFKPLVDEPQNLVKTNCELFEKLGEYGFQNALLVRYTKKAPQVSTPTLVEVSRKLGKVGTKCCKKPESERMSCAEDFLSVVLNRLCVLHEKTPVSERVTKCCSESLVNRRPCFSGLEVDETYVPKEFNAETFTFHADLCTLPEAEKQVKKQTALVELLKHKPKATDEQLKTVMGDFGAFVEKCCAAENKEGCFSEEGPKLVAAAQAALV
notes: also called DSA
With B2, in assay [2], binding was characterised by a dissociation constant (Kd) of 280 nM, the koff amounted to 0.0034 s⁻¹ and the kon was 12000 M⁻¹ s⁻¹. Further, in assay [3], the Kd was 1400 nM, the off-rate constant (koff) is 0.013 s⁻¹ and the kon worked out at 9200 M⁻¹ s⁻¹.
In assay [3], B3 returned a Kd of 2700 nM, a koff of 0.053 s⁻¹ and a kon of 20000 M⁻¹ s⁻¹. The Kd in [4] was 23000 nM.

B4: Wild type rhesus monkey serum albumin (ligand)
chain: DTHKSEVAHRFKDLGEEHFKGLVLVAFSQYLQQCPFEEHVKLVNEVTEFAKTCVADESAENCDKSLHTLFGDKLCTVATLRETYGEMADCCAKQEPERNECFLQHKDDNPNLPPLVRPEVDVMCTAFHDNEATFLKKYLYEVARRHPYFYAPELLFFAARYKAAFAECCQAADKAACLLPKLDELRDEGKASSAKQRLKCASLQKFGDRAFKAWAVARLSQKFPKAEFAEVSKLVTDLTKVHTECCHGDLLECADDRADLAKYMCENQDSISSKLKECCDKPLLEKSHCLAEVENDEMPADLPSLAADYVESKDVCKNYAEAKDVFLGMFLYEYARRHPDYSVMLLLRLAKAYEATLEKCCAAADPHECYAKVFDEFQPLVEEPQNLVKQNCELFEQLGEYKFQNALLVRYTKKVPQVSTPTLVEVSRNLGKVGAKCCKLPEAKRMPCAEDYLSVVLNRLCVLHEKTPVSEKVTKCCTESLVNRRPCFSALELDEAYVPKAFNAETFTFHADMCTLSEKEKQVKKQTALVELVKHKPKATKEQLKGVMDNFAAFVEKCCKADDKEACFAEEGPKFVAASQAALA
notes: also called rmSA; rmSA Wt
Turning to B4, in [2], the affinity, expressed as Kd, was 1540 nM; the koff stood at 0.02 s⁻¹; the kon came out at 13000 M⁻¹ s⁻¹. In [5], this molecule showed a Kd of 2400 nM, a koff of 0.013 s⁻¹ and a kon of 5300 M⁻¹ s⁻¹. Further, in [3], the Kd is 1200 nM, the koff came out at 0.012 s⁻¹ and the kon was 10000 M⁻¹ s⁻¹.

B5: Soluble pig FcRn with pig beta2-microglobulin, HIS-tagged (Example 4) (receptor)
chain: ADNHRSLLYHLTAVSAPTPGAPAFWVSGWLGPQQYLSYNNLRAQAEPYGAWVWESQVSWYWEKETADLRNKQKLFLEALKTLEEGGPFTLQGLLGCELGPDNVSVPVATFALNGEEFMKFDTKLGTWDGEWPEARTIGSKWMQEPDAVNKEKTFLLYSCPHRLLGHLERGRGNLEWKEPPSMRMKARPGTAPGFSVLTCIAFSFYPPELQLRFLRNGLAAGSGESDIGPNGDGSFHAWSSLTVKSGDEHHYCCVVQHAGLAQPLTVEL
b2m: VARPPKVQVYSRHPAENGKPNYLNCYVSGFHPPQIEIDLLKNGEKMNAEQSDLSFSKDWSFYLLVHTEFTPNAVDQYSCRVKHVTLDKPKIVKWDRDH
notes: also called pFcRn; not shown: HIS-tag on the C-terminal of the beta-chain
With B5, the Kd in assay [6] amounted to 232000 nM; in assay [7], 210000 nM; in [8] it was 468000 nM; in assay [9], 1300 nM; with HSA K573P it was 1900 nM. Further, the koff turned out to be 0.0401 s⁻¹ in assay [9] and 0.0622 s⁻¹ with HSA K573P. The kon is 31200 M⁻¹ s⁻¹ in [9] and 32700 M⁻¹ s⁻¹ with HSA K573P.
In [9], B6 returned a Kd of 360000 nM, a koff of 0.181 s⁻¹ and a kon of 500 M⁻¹ s⁻¹. In the assay with HSA K573P, this molecule showed a Kd of 190000 nM, a koff of 0.297 s⁻¹ and a kon of 1500 M⁻¹ s⁻¹.
